Reference: IntAct's records for PubMed 20485264

Experiments:
ipka_human PKIA [1] = molecular target: ipka_human PKIA (UniProt P61925)
ipka_human PKIA [2] = molecular target: ipka_human PKIA (UniProt P61925); remark: listed apart in the source
ipka_human PKIA [3] = molecular target: ipka_human PKIA (UniProt P61925); remark: listed apart in the source
ipka_human PKIA [4] = molecular target: ipka_human PKIA (UniProt P61925); remark: listed apart in the source
xpo1_yeast CRM1 = xpo1_yeast CRM1 (UniProt P30822)

Substance: Exportin-1 (Saccharomyces cerevisiae) (from UniProt P30822) P754D
- effect of a mutation on the interaction (ipka_human PKIA [1]): increasing interaction

Substance: Exportin-1 (Saccharomyces cerevisiae) (from UniProt P30822) V441A;L442A
- effect of a mutation on the interaction (ipka_human PKIA [2]): increasing interaction

Substance: Exportin-1 (Saccharomyces cerevisiae) (from UniProt P30822) V441D
- effect of a mutation on the interaction (ipka_human PKIA [3]): increasing interaction

Substance: Exportin-1 (Saccharomyces cerevisiae) (from UniProt P30822) V443D
- effect of a mutation on the interaction (ipka_human PKIA [4]): increasing interaction

Substance: cAMP-dependent protein kinase inhibitor alpha (Homo sapiens) (from UniProt P61925) I47A
- effect of a mutation on the interaction (xpo1_yeast CRM1): disrupting interaction
